Assay results: patent US20070122405A1 (Human Genome Sciences, published 2007)

B1: 43E2, fully human IgG4 CCR5 monoclonal antibody (secreted by cell line NS0mAb43E2) (antibody, V domains shown)
VH: QVQLVESGGGVVQPGRSLRLSCAASGFTLSGYGMHWVRQAPGKGLEWVSLISYDGSNKYYADSVKGRFTISRDDSKNTLYLRMNSLRAEDTAVYYCARGRNDFWSGYYTAGMDVWGQGTTVTVSS
VL: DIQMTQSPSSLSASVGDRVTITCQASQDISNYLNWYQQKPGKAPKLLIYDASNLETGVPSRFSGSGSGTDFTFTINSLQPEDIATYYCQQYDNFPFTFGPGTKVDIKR
notes: also called Eu-43E2
B2: 43E2/AK38181, fully human IgG4 CCR5 monoclonal antibody (secreted by cell line NS0mAb43E2/AK38181) (antibody, V domains shown)
VH: B1 VH
VL: DIQMTQSPSSLSASVGDRVTITCQASQGIRKYLNWYQQKPGKVPKLLIYDASNLETGVPSRFSGSGSGTDFTFAISSLQPEDTATYYCQQYDDFPFTFGQGTRLEIKR
notes: also called Eu-43E2/AK38181

Columns and labels:
[1] = target: T1, Human G-protein Chemokine Receptor (CCR5) HDGNR10 (human, UniProt P51681 1-352); assay: cell-based or functional assay
T1 sequence (P51681 whole entry): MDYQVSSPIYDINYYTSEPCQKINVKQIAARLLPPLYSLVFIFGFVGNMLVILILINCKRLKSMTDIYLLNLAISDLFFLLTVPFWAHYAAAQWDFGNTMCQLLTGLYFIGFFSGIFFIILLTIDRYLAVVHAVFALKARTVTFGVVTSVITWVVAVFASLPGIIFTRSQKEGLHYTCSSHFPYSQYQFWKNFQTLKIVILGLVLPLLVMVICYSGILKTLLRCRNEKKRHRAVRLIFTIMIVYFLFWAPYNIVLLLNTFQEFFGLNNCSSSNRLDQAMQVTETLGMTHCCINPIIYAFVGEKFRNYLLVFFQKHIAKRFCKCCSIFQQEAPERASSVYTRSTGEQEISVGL

[2] = target: T1, Human G-protein Chemokine Receptor …; assay: saturation binding of Eu-labelled antibody to CEM.NKR-CCR5 transfected cells, time resolved fluorometry
Text: (§1) The 43E2 and 43E2/AK38181 antibodies were labeled with Europium (Eu) using Dissociation-Enhanced Lanthanide Fluorescence Immunoassay (DELFIA™) Eu-labeling kit (Catalog #1244-302, Perkin Elmer Life Sciences, Boston, Mass.) following the manufacturer's instructions. The labeling agent is the Eu-chelate of N1-(p-isothiocynateobenzyl) diethylenetriamine N1, N2, N3, N3-tetraacetic acid (DTTA). The DTTA group forms a stable complex with Eu³⁺ and the isothiocynate group reacts with primary amino groups on the antibodies at alkaline pH to form a stable, covalent thiourea bond. […] The Eu³⁺ content and protein concentration of each labeled antibody was determined.
(§2) The Eu-43E2 and Eu-43E2/AK38181 saturation binding assays were performed in 96 well plates, with 0.3-0.5 million CEM.NKR-CCR5 transfected cells per well, and various concentrations of Eu-43E2 and Eu-43E2/AK38181 in the absence or presence of 100-fold excess of unlabeled CCR5mAb004 for 1 hour at room temperature (RT). […] The fluorescence emitted from the released Eu was determined by time resolved fluorometry (VICTOR 1420 DELFIA™ fluorometer, Wallac Oy, Turku, Finland). The data were analyzed on Prizm software (GraphPad Software, San Diego, Calif.) to determine the equilibrium dissociation constant (Kd).

[3] = target: T1, Human G-protein Chemokine Receptor …; assay: cell-based or functional assay; remark: listed apart in the source
[4] = target: T1, Human G-protein Chemokine Receptor …; assay: cell-based or functional assay; remark: listed apart in the source
[5] = target: T1, Human G-protein Chemokine Receptor …; assay: cell-based or functional assay; remark: listed apart in the source
[6] = target: T1, Human G-protein Chemokine Receptor …; assay: cell-based or functional assay; remark: listed apart in the source
[7] = target: T1, Human G-protein Chemokine Receptor …; assay: cell-based or functional assay; remark: listed apart in the source
[8] = target: T1, Human G-protein Chemokine Receptor …; assay: saturation binding of Eu-labelled antibodies to CEM.NKR-CCR5 transfected cells
Text: as §1, §2

| Binder | IC50 (read off the curve), HIV-1-JRFL entry, Donor 2 target cells [1] | Kd [2] | IC50 of entry of HIV-1-luciferase pseudotyped with env of 92BR025 (clade B) into U87/CD4/CCR5 cells [4] | IC50 of entry of HIV-1-luciferase pseudotyped with env of 92RW009 (clade A) into U87/CD4/CCR5 cells [4] | IC50 of entry of HIV-1-luciferase pseudotyped with env of 92TH001 (clade E) into U87/CD4/CCR5 cells [4] | IC50 of entry of HIV-1-luciferase pseudotyped with env of 92UG005 (clade D) into U87/CD4/CCR5 cells [4] | IC50 of entry of HIV-1-luciferase pseudotyped with env of 93IN101 (clade C) into U87/CD4/CCR5 cells [4] | IC50 of entry of HIV-1-luciferase pseudotyped with env of 301657 (clade B) into U87/CD4/CCR5 cells [4] | IC50 of entry of HIV-1-luciferase pseudotyped with env of 301714 (clade B) into U87/CD4/CCR5 cells [4] | IC50 of entry of HIV-1-luciferase pseudotyped with env of 302056 (clade B) into U87/CD4/CCR5 cells [4] | IC50 of entry of HIV-1-luciferase pseudotyped with env of 'Enfuvirtide Resistant' (B/Enfuvirtide Resistant) into U87/CD4/CCR5 cells [4] | IC50 of entry of HIV-1-luciferase pseudotyped with env of ASJM108 (clade B) into U87/CD4/CCR5 cells [4] | IC50 of entry of HIV-1-luciferase pseudotyped with env of ASM80 (clade B) into U87/CD4/CCR5 cells [4] | IC50 of entry of HIV-1-luciferase pseudotyped with env of DU151 (clade C) into U87/CD4/CCR5 cells [4] | IC50 of entry of HIV-1-luciferase pseudotyped with env of JRCSFSDM DIM (B/Enfuvirtide Resistant) into U87/CD4/CCR5 cells [4] | IC50 of entry of HIV-1-luciferase pseudotyped with env of JRFL (clade B) into U87/CD4/CCR5 cells [4] | IC50 of entry of HIV-1-luciferase pseudotyped with env of RU570 (clade G) into U87/CD4/CCR5 cells [4] | Mean IC50 over the panel of HIV-1-luciferase pseudotyped viruses, entry into U87/CD4/CCR5 cells [4] | Median IC50 over the panel of HIV-1-luciferase pseudotyped viruses, entry into U87/CD4/CCR5 cells [4] | IC50 (read off the curve), HIV-1-JRFL entry, Donor 3 target cells [5] | further results |
| --- | --- | --- | --- | --- | --- | --- | --- | --- | --- | --- | --- | --- | --- | --- | --- | --- | --- | --- | --- | --- | --- |
| B1 | ~800 nM | 2.36 nM | 5.6 nM | 3.2 nM | 1.2 nM | 2.4 nM | 1 nM | 22.5 nM | 35.9 nM | 8 nM | 8.5 nM | 8.7 nM | 7.7 nM | 2.2 nM | 9.7 nM | 5.5 nM | 5.2 nM | 8.4 nM | 5.8 nM | ~800 nM | percent of HIV-1-JRFL entry blocked at the highest concentrations tested (up to 2000 nM) [3]: ≤ 60%; IC50 (read off the curve), HIV-1-JRFL entry, Donor 1 target cells [6]: ~1000 nM; Median IC50, inhibition of HIV-1-luciferase pseudotyped viruses [7]: 5.8 nM |
| B2 | ~60 nM | 1.18 nM | 1 nM | 1.1 nM | 0.6 nM | 1.4 nM | 1.1 nM | 4.4 nM | 5 nM | 2.3 nM | 2.5 nM | 2.2 nM | 2 nM | 1.3 nM | 2.8 nM | 2.2 nM | 1.7 nM | 2.1 nM | 1.7 nM | ~20 nM | fold lower IC50 than 43E2, HIV-1-JRFL entry into activated human T-cells [3]: ≥ 10 fold; fold lower IC50 than 43E2, inhibition of HIV-1 entry into U87/CD4/CCR5 cells [3]: ~3 fold; fold lower IC90 than 43E2, inhibition of HIV-1 entry into U87/CD4/CCR5 cells [3]: ~10 fold; IC50 (read off the curve), HIV-1-JRFL entry, Donor 1 target cells [6]: ~100 nM; fold difference in binding affinity against 43E2 [8]: ~2 fold; Median IC50, inhibition of HIV-1-luciferase pseudotyped viruses [7]: 1.7 nM |
